The values that follow come from publication PMC7141386, “Extracellular CIRP induces macrophage endotoxin tolerance through IL-6R–mediated STAT3 activation” (JCI Insight, 2020).

Test [1] addresses T1, recombinant human IL-6R alpha protein Leu20-Asp358 (human, UniProt P08887 20-358).
T1 construct: human IL-6 receptor alpha, Leu20-Asp358; no tags in the Biacore assay; also called rhIL-6R; IL-6 receptor; source: bought: R&D Systems, Bio-Techne; Spodoptera frugiperda Sf21, baculovirus-derived
T1 sequence (looked up): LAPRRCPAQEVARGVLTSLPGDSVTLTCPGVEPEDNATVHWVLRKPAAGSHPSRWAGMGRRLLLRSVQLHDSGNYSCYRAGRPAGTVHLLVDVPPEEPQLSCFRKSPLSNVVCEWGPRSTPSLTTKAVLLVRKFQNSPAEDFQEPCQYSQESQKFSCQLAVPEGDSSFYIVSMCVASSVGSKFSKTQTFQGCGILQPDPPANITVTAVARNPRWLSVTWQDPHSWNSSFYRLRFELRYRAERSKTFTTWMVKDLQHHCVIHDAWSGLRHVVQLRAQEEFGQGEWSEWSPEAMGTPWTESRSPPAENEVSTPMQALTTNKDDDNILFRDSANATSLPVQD
The test is described as follows: SPR; Biacore 3000; rhIL-6R immobilised on a CM5 chip (amine coupling, 10 mM sodium acetate pH 4.5); rhCIRP as analyte 0-1.0 uM; 1x PBS with 0.01% Tween-20, pH 7.4; 30 uL/min, 25°C; global fit to the Langmuir model for 1:1 binding. The settings on record: both partners purified.

The target of test [2] is T2, mouse IL-6 receptor on peritoneal macrophages (mouse (endogenous in peritoneal …, UniProt P22272 20-460)).
T2 construct: IL-6 receptor alpha, mouse, endogenous on peritoneal macrophages, detected with goat anti-mouse IL-6R antibody; also called IL-6Rα; source: endogenous, on murine peritoneal macrophages
T2 sequence (looked up): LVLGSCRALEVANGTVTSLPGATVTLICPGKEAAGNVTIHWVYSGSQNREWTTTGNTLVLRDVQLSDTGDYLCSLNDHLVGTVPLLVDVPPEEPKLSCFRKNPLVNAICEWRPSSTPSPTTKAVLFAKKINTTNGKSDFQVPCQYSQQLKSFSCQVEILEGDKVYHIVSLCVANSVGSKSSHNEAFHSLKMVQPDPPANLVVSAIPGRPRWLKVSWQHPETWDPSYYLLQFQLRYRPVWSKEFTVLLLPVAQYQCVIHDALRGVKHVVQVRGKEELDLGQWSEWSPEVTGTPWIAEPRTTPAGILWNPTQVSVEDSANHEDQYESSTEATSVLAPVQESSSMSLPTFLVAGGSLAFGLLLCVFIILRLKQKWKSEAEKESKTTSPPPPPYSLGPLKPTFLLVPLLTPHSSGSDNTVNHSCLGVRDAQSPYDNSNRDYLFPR
The test is described as follows: FRET or BRET; peritoneal macrophages in a 96-well plate treated with rmCIRP for 10 minutes at 4°C, fixed with 4% paraformaldehyde, stained with anti-CIRP and anti-IL-6R or anti-CD11b antibodies and Cy3- and Cy5-labelled secondary antibodies; FRET units from cell-associated fluorescence (Biotek Synergy Neo2). Particulars: one partner purified. On the technique in general: Bioluminescence resonance energy transfer reports proximity on the nanometre scale.

B1: recombinant human CIRP (cold-inducible RNA-binding protein) (natural protein, UniProt Q14011 1-172, looked up)
chain: MASDEGKLFVGGLSFDTNEQSLEQVFSKYGQISEVVVVKDRETQRSRGFGFVTFENIDDAKDAMMAMNGKSVDGRQIRVDQAGKSSDNRSRGYRGGSAGGRGFFRGGRGRGRGFSRGGGDRGYGGNRFESRSGGYGGSRDYYSSRSQSGGYSDRSSGGSYRDSYDSYATHNE
notes: also called rhCIRP; eCIRP; source: bought: Origene
With B1, the Kd – broadly, the constant that tells how readily two partners part at equilibrium – in test [1] was determined as 98 nM.

B2: recombinant murine CIRP (cold-inducible RNA-binding protein) (natural protein, mouse, UniProt P60824 1-172, looked up)
chain: MASDEGKLFVGGLSFDTNEQALEQVFSKYGQISEVVVVKDRETQRSRGFGFVTFENIDDAKDAMMAMNGKSVDGRQIRVDQAGKSSDNRSRGYRGGSAGGRGFFRGGRSRGRGFSRGGGDRGYGGGRFESRSGGYGGSRDYYASRSQGGSYGYRSSGGSYRDSYDSYATHNE
notes: also called rmCIRP
Turning to B2, the “fold increase in FRET units against the negative control CD11b” value in test [2] was found to be 17 fold.
